The record followed here is the DeepSol protein solubility set.

This data set is described as follows: soluble on expression in E. coli; label from the status in PepcDB or PDB records.
For the sequence “MSLTTVLGIETSCDETGVGIARLDPDGTVTLLADEVASSVDEHVRFGGVVPEIASRAHLEALGPAMRRALAAAGLKQPDIVAATIGPGLAGALLVGVAAAKAYSAAWGVPFYAVNHLGGHLAADVYEHGPLPECVALLVSGGHTHLLHVRSLGEPIIELGSTVDDAAGEAYDKVARLLGLGYPGGKALDDLARTGDRDAIVFPRGMSGPADDRYAFSFSGLKTAVARYVESHAADPGFRTADIAAGFQEAVADVLTMKAVRAATALGVSTLLIAGGVAANSRLRELATQRCGEAGRTLRIPSPRLCTDNGAMIAAFAAQLVAAGAPPSPLDVPSDPGLPVMQGQVEGHHHHHH”, the “soluble on expression in E. coli” value is recorded as “soluble”. Regarding “MSLTVDFSRFPLAPGDRVLDLGCGAGRHAFECYRRGARVVALDQNAEEIREVAKWFAAMEEAGEAPAGATATAMEGDALALPFPDESFDVVIISEVMEHIPDDKGVLAEMVRVLKPGGRIAITVPRYGPEKVCWTLSDAYHEVEGGHIRIYRADQLLTRIREAGLKPYGTHHAHALHSPYWWLKCAFGVDNDKALPVRAYHKLLVWDIMKKPLATRVAEQALNPLIGKSFVAYATKPHLPPVDAEGHHHHHH”, the “soluble on expression in E. coli” value is given as “soluble”. Turning to “MSLTVNNVGLRYGDKKLFEDVSIKFLPGNCYGLIGANGAGKSTFLKVLSGELDSQSGNVHIGSGERLAVLRQDHFQYDNELVLNTVIMGHERLYKIMDEKNAIYMKEDFSDEDGIRAAELEGEFAELDGWEAESDAAVLLNGLGIPTDLHGKLMKDLTGGEKVKVLLAQALFGKPDILLLDEPTNHLDIRAIHWLEEFLINFDNTVIVVSHDRHFLNKVCTHIADLDFSKIKLYVGNYDFWYESSQLAQTMMGDRNKKKEEKMKELQDFIARFSANASKSKQATSRKKMLEKITLEDIQPSSRRYPFIQFKPDREVGNDLLTVTNLSKTIDGVKILDNLSFSINRNDKVALVGDDEVAKTVLFQILAGEMEPDEGSYKWGITTSQSYFPKDNSEFFEENDMSLVEWLRQFSPEDDSEAFLRGFLGRMLFSGDEVLKKVRVLSGGEKVRCMLSKMMLSGSNVLLLDEPTNHLDLESITALNNGLEAFKGAMIFASHDHQLLQTIATRIINLSKDQFYNKEISYDEYLKEVMNVAEGHHHHHH”, the “soluble on expression in E. coli” value was “soluble”. In the case of “MSLTVSKINEKATPVKKWTVYLVQHTHTDIGYTKPQTEILSEHLRYIDYAIEYCEQTKDYTNDAKFRWTCESAWAVDEYLKNRPEEQVNKLKKYIAEGQIEVASMYFNMSEIVDENSFKTFLQPVKEFRKHGIPSALAMQNDVNGIAWCLADYLPDLGIKYLWMGEHHYKSQVPFNMPTVFQWESPSGKPILTYRADHYNTGNFWGIEQGDIQKTEPKLLHYLSELERKHYPFDAVGVQYSGYFTDNSPPSIIECKLIREWNEKYAYPKLRSATASEFMDYVTERYGDKIPAYRAAYPDWWTDGFGSAARETAASRKTHSDMTAVEGLLSMAVLKDKCLPQATHQQIEHIHESLLFYDEHTFGASESVSDPLCENSQVQWGEKSAYAWEAVKRTQMLYETSVGLLQGDLRRGKNPTLTIFNTLNWKRSEMLTVYIDFEVIPRNQFFEITDFQGHSLKVQPIRYRREGCYYAIFAEDIPPMGYKTFEIVFKQPSTDTGTITINNASIENHFYKLQLNPDKGTIQSLYDKELNCELVDSSSPWELGAFIYEKLGNRDQLAQYRLDDYNRTGLSECRIIDSSNGPIYQRILLQGKSPGTDEAFGVNLEIKLYHDTKRIELEYAIKRLPETDPSGIYVAFPFQLPEGKLAFDVQGGTVISGKNQLEGTSTDWNTVQNFVSVQNNQAQIIIGSSLIPLYQLGDINLGKFQYQKQYERPHVYSWVMNNYWNTNFKASQEGEFRWSYHLTSSVDPSNNLATKFGWSSRIPLYARVMPTGTENHKPTEYSAFHFEKDNFLMTSCTPSKEEGYILLNIREIDGKRTNLRILNEDGQTIPFTIVNAIEEKLENETSEHIFEGYQNKFIKIKREGHHHHHH”, the “soluble on expression in E. coli” value is given as “soluble”. As for “MSLTYLIKVLELFSGVGSFSISLNTLGIEHEIVGFSETRKTATQLFCKLHNKKESENLGDVRNVSAKDLDVDLLVFGSPCQSFTRAGKQGGGLKGSDTRSALMWEAVRIMEECKPKWIVWENVPDAISRKNMPNFQNYMDELDSLNYNTYYKVLNAHELGSAQKRKRLFSISIRKDIDNGKFEFLDLTREPKHLETYLENNDQPDIANEHIHSHLILGKDENGYKIKNGTKKGYLYANNGDGIDLAYVTSKARRGRVQVKACQTIMRGKTLGTINDGVLRFYSPREYWRLQEMPDELYKHVEACNFKPSTAYDVVGGVINQLHLKTVFLSLKKAFNEGHHHHHH”, the entry is “not soluble”.

Regarding “MSLVLRKRSMKLGDLKVHTLAIPLREPIQFSWEPFPHPVYVFSIVEVEAGGFKGYSAIEFGAAYKHFLETTVKLTIQGLDIEIEDVDARLLEVGSWAIQRLGALEVAIWDLIAKREGLPLYRLLGGGRRKVKVYASTGRLLSAEETVKMVEKYAELGIDVVKLRFRRERINEDLEVLKAVAREFSDVKISVDANQAWSYTPPYWSRKKAMKVAKELENFEVLWLEEPLWKDDVEGYRWLRENTSIEISGGELEHGIQRFRMLIEGGAFDIVQADAVYSNGIQECRKVAALAEAFNLKFMPHAWDPGLGWLANLHLAASLPEKLCPYIETPLDPLWWNEVMFGVLNGEVELEKGYAKLPEQPGLGFEPDEEKMKKFRIAEGHHHHHH”, the “soluble on expression in E. coli” value is “not soluble”. To “MSLYIKVLSVSELNNYIKRVVDSDYILSNAQVKGEISNFKFHSSGHVYFSLKDEGGKINCIMFRSNAEKLKFIPENGMKVNVKGRVSVYVKDGAYQLYCTEITPEGRGELYEAFEKLKEKLLNEGMFSEEHKRNIPKYPKMIGVITSPTGAAIRDIINVATRRNKSVDMIICPTLVQGVNAPGELIKALDYLNNREDIDTIILARGGGSIEELWAFNDEKLAYAVYNSKKPVVTGVGHETDFTIVDFVSDRRAPTPSAAAEIAVPNINEEMNSFVSLKRALDTSIKTYIQNKCNQLEIAKRMLEKNSPEILIVNGYSSIDNFKYVLDMRIANKIKIEKEKILRYNSILKSNSPINILNKGYSIISDEIGNNISNVDKLKEPDKVHITFKDGKVNAKIDILREGHHHHHH” belongs “soluble”; to “MSLYKAVFSDFNGTLLTSQHTISPRTVVVIKRLTANGIPFVPISARSPLGILPYWKQLETNNVLVAFSGALILNQNLEPIYSVQIEPKDILEINTVLAEHPLLGVNYYTNNDCHARDVENKWVIYERSVTKIEIHPFDEVATRSPHKIQIIGEAEEIIEIEVLLKEKFPHLSICRSHANFLEVMHKSATKGSAVRFLEDYFGVQTNEVIAFGDNFNDLDMLEHVGLGVAMGNAPNEIKQAANVVTATNNEDGLALILEEKFPEEGHHHHHH”, “soluble”; to “MSLYKILLADDERIILDGMAGIIEWESLGASLIGKAQNGHEAYEKIVHKQPHIVITDVKMPGMDGLELIKKVSAVSPSVQFIVLSGFGEFEYAKEAMKYGVKHYLLKPCNEQQIISSLEEIIAELKRQDVHKKKTAHLKHELDHIRSFAADQYLEGLIAGVAQLSPPPSLAGKKIRLLILKGEQSIDAAAREALGSALTAVCSSGEWTVLAVEENAAEKVAEVFADRKMAISQAGELRHAGQLFRDTAEASGDLHGSAVISKMIRLIADELGNPNLSLKWAAKDMLFMNPDYLGKLFKQETGEKFSQYVTRVRLEHAMKQMKIRRDVSVSEIAEEIGFGDNPKYFSLVFKKYTGLTPSEFRRKQGGASAGEGHHHHHH”, “soluble”.

Take “MSLYLFGESDHYLWLPRGLLYPLQDKFKQVSVEDRRKVQRSISVEFKGELTFEQELALSDMTSKENGLLHAETGFGKTVLGAALISERKTKTIILVHNKQLLDQWLDRLNCFLTFEEEEAIRYTASGREKVIGYVGQYGGTKKWLSKLVDVVMIQSLFKLENSQSLLDEYEMMIVDECHHVSALMFEKVVAQFRGKYLYGLTATPERKNGHEPIVFQRIGEILHTADKREGHHHHHH”: the “soluble on expression in E. coli” value is “not soluble”.

With “MSLYTINIIPRVLHFKQPAGTSRGSYTTRNVWYIHLSSIECPGRVGVGECAPLPKLSCDDLPDYEQVLRSACQRLEQTGELDIESLRGYPSILFGLETALRHYETQSWALWDTPFSRGEVGIPINGLIWMGSFDRMLQQIEVKMQAGYRCIKLKIGAINFEEELALLRHIRAHYSAREIELRVDANGAFSPADAMDKLNRLAELDLHSIEQPIRAGQWEEMARLAAESPLPIALDEELIGCNALERKRELLAAIHPRYIILKPSLHGGISGGNEWIAEAEKQHIGWWITSALESNIGLNAIAQWCATFRNPLPQGLGTGLLFTDNVEMPLEIRKDCLWFCKEGHHHHHH”, the “soluble on expression in E. coli” value was “soluble”.
